# Assay results from US20180155451A1 (published 2018).
# T1: FcγRIIb (human, UniProt P31994 43-217)
# T1 construct: extracellular domain; also called FcgRIIb; 2b; not shown: His tag at the C terminus
# T1 sequence (looked up): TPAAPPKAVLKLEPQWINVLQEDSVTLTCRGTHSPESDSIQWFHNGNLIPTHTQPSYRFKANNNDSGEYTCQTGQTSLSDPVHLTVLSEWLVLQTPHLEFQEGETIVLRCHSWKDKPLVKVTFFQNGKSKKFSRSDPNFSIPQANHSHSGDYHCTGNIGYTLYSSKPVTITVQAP
# B1: GpH7-A5/GpH7-B3 variant D265_18N/GpL16-k0 (antibody, human IgG1, kappa)
# heavy 1: not shown
# heavy 2: not shown
# light: DIVMTQSPLSLPVTPGEPASISCQASESLVHSNRNTYLHWYLQKPGQSPQLLIYKVSNRFSGVPDRFSGSGSGTDFTLKISRVEAEDVGVYYCSQNTHVPPTFGQGTKVEIERTVAAPSVFIFPPSDEQLKSGTASVVCLLNNFYPREAKVQWKVDNALQSGNSQESVTEQDSKDSTYSLSSTLTLSKADYEKHKVYACEVTHQGLSSPVTKSFNRGEC
# notes: He Ab: mutation only in the GpH7-B3 H chain; EU numbering; also called He Ab
# B2: GpH7-A5/GpH7-B3 variant S267_20W/GpL16-k0 (antibody, human IgG1, kappa)
# heavy 1: not shown
# heavy 2: not shown
# light: B1 light
# notes: as for B1
# B3: GpH7-A5/GpH7-B3 variant S239_20W/GpL16-k0 (antibody, human IgG1, kappa)
# heavy 1: not shown
# heavy 2: not shown
# light: B1 light
# notes: as for B1
# B4: GpH7-A5/GpH7-B3 variant V266_11K/GpL16-k0 (antibody, human IgG1, kappa)
# heavy 1: not shown
# heavy 2: not shown
# light: B1 light
# notes: as for B1
# B5: GpH7-A5/GpH7-B3 variant V266_13S/GpL16-k0 (antibody, human IgG1, kappa)
# heavy 1: not shown
# heavy 2: not shown
# light: B1 light
# notes: as for B1
# B6: GpH7-A5/GpH7-B3 variant D265_19Q/GpL16-k0 (antibody, human IgG1, kappa)
# heavy 1: not shown
# heavy 2: not shown
# light: B1 light
# notes: as for B1
# B7: GpH7-A5/GpH7-B3 variant V266_20W/GpL16-k0 (antibody, human IgG1, kappa)
# heavy 1: not shown
# heavy 2: not shown
# light: B1 light
# notes: as for B1
# B8: GpH7-A5/GpH7-B3 variant V266_01G/GpL16-k0 (antibody, human IgG1, kappa)
# heavy 1: not shown
# heavy 2: not shown
# light: B1 light
# notes: as for B1
# B9: GpH7-A5/GpH7-B3 variant V266_04F/GpL16-k0 (antibody, human IgG1, kappa)
# heavy 1: not shown
# heavy 2: not shown
# light: B1 light
# notes: as for B1
# B10: GpH7-A5/GpH7-B3 variant V266_09D/GpL16-k0 (antibody, human IgG1, kappa)
# heavy 1: not shown
# heavy 2: not shown
# light: B1 light
# notes: as for B1
# B11: GpH7-A5/GpH7-B3 variant V266_15Y/GpL16-k0 (antibody, human IgG1, kappa)
# heavy 1: not shown
# heavy 2: not shown
# light: B1 light
# notes: as for B1
# B12: GpH7-A5/GpH7-B3 variant V266_05P/GpL16-k0 (antibody, human IgG1, kappa)
# heavy 1: not shown
# heavy 2: not shown
# light: B1 light
# notes: as for B1
# B13: GpH7-A5/GpH7-B3 variant D265_20W/GpL16-k0 (antibody, human IgG1, kappa)
# heavy 1: not shown
# heavy 2: not shown
# light: B1 light
# notes: as for B1
# B14: GpH7-A5/GpH7-B3 variant S267_11K/GpL16-k0 (antibody, human IgG1, kappa)
# heavy 1: not shown
# heavy 2: not shown
# light: B1 light
# notes: as for B1
# B15: GpH7-A5/GpH7-B3 variant H268_06M/GpL16-k0 (antibody, human IgG1, kappa)
# heavy 1: not shown
# heavy 2: not shown
# light: B1 light
# notes: as for B1
# B16: GpH7-A5/GpH7-B3 variant S267_15Y/GpL16-k0 (antibody, human IgG1, kappa)
# heavy 1: not shown
# heavy 2: not shown
# light: B1 light
# notes: as for B1
# B17: GpH7-A5/GpH7-B3 variant S267_16H/GpL16-k0 (antibody, human IgG1, kappa)
# heavy 1: not shown
# heavy 2: not shown
# light: B1 light
# notes: as for B1
# B18: GpH7-A5/GpH7-B3 variant V266_10E/GpL16-k0 (antibody, human IgG1, kappa)
# heavy 1: not shown
# heavy 2: not shown
# light: B1 light
# notes: as for B1
# B19: GpH7-A5/GpH7-B3 variant S267_05P/GpL16-k0 (antibody, human IgG1, kappa)
# heavy 1: not shown
# heavy 2: not shown
# light: B1 light
# notes: as for B1
# B20: GpH7-A5/GpH7-B3 variant S267_04F/GpL16-k0 (antibody, human IgG1, kappa)
# heavy 1: not shown
# heavy 2: not shown
# light: B1 light
# notes: as for B1
# B21: GpH7-A5/GpH7-B3 variant V266_16H/GpL16-k0 (antibody, human IgG1, kappa)
# heavy 1: not shown
# heavy 2: not shown
# light: B1 light
# notes: as for B1
# Molecular target: T2, FcγRIa (human, UniProt P12314 16-292)
# T2 construct: extracellular domain; also called FcgRI; 1a; not shown: His tag at the C terminus
# Assay: SPR; He/Con_1a divided by He/Con_2b (FcγRIIb as reference)
# T2 sequence (P12314 16-292): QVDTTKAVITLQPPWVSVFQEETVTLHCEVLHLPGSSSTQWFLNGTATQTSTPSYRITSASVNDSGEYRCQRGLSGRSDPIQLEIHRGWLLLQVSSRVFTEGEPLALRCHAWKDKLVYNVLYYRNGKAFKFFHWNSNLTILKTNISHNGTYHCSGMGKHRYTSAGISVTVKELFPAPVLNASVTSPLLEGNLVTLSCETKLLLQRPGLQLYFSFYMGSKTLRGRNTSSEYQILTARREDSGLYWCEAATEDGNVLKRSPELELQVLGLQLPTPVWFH
row,Ia/IIb He_1a/2b [ratio],Binder
1,4.52,B1
2,1.74,B2
3,2.06,B3
4,63.5,B4
5,1.67,B5
6,2.66,B6
7,1.27,B7
8,1.77,B8
9,1.68,B9
10,7.88,B10
11,1.89,B11
12,205,B12
13,45.6,B13
14,7.65,B14
15,1.59,B15
16,2.48,B16
17,1.52,B17
18,5.37,B18
19,2.91,B19
20,2.04,B20
21,1.56,B21

# Molecular target: T1, FcγRIIb
# Assay: SPR (Biacore), captured antibody, soluble FcγR; relative to GpH7-A5/GpH7-B3/GpL16-k0
row,He/Con_2b,Binder
1,"6.1 relative, HeCon Ab = 100",B1
2,"57.2 relative, HeCon Ab = 100",B2
3,"45.1 relative, HeCon Ab = 100",B3
4,"1 relative, HeCon Ab = 100",B4
5,"54.4 relative, HeCon Ab = 100",B5
6,"33.4 relative, HeCon Ab = 100",B6
7,"71.9 relative, HeCon Ab = 100",B7
8,"51.5 relative, HeCon Ab = 100",B8
9,"57.6 relative, HeCon Ab = 100",B9
10,"10.1 relative, HeCon Ab = 100",B10
11,"49.4 relative, HeCon Ab = 100",B11
12,"0.4 relative, HeCon Ab = 100",B12
13,"1.1 relative, HeCon Ab = 100",B13
14,"12.2 relative, HeCon Ab = 100",B14
15,"65.7 relative, HeCon Ab = 100",B15
16,"37.9 relative, HeCon Ab = 100",B16
17,"65.9 relative, HeCon Ab = 100",B17
18,"15.2 relative, HeCon Ab = 100",B18
19,"31.5 relative, HeCon Ab = 100",B19
20,"48 relative, HeCon Ab = 100",B20
21,"57.2 relative, HeCon Ab = 100",B21

# Molecular target: T2, FcγRIa
# Assay: as above
row,He/Con_1a,Binder
1,"27.7 relative, HeCon Ab = 100",B1
2,"99.4 relative, HeCon Ab = 100",B2
3,"92.7 relative, HeCon Ab = 100",B3
4,"64.4 relative, HeCon Ab = 100",B4
5,"90.6 relative, HeCon Ab = 100",B5
6,"88.8 relative, HeCon Ab = 100",B6
7,"91.4 relative, HeCon Ab = 100",B7
8,"91.3 relative, HeCon Ab = 100",B8
9,"96.7 relative, HeCon Ab = 100",B9
10,"79.3 relative, HeCon Ab = 100",B10
11,"93.3 relative, HeCon Ab = 100",B11
12,"71.9 relative, HeCon Ab = 100",B12
13,"51.5 relative, HeCon Ab = 100",B13
14,"93.3 relative, HeCon Ab = 100",B14
15,"105 relative, HeCon Ab = 100",B15
16,"94.2 relative, HeCon Ab = 100",B16
17,"100 relative, HeCon Ab = 100",B17
18,"81.9 relative, HeCon Ab = 100",B18
19,"91.8 relative, HeCon Ab = 100",B19
20,"97.7 relative, HeCon Ab = 100",B20
21,"89.1 relative, HeCon Ab = 100",B21
